Measured values published in US20210139548A1 (published 2021).
*1 amine or outer side, *2 acyl side, *3 side chain or, on linkers, in order; H or OH if unused. Side-chain parts run from the residue outwards. The star is where a group is joined. C18 diacid = O=C(O)CCCCCCCCCCCCCCCCC(=O)*; γGlu = O=C(O)[C@H](CCC(=O)[*:2])N[*:1]; Isovaleryl = CC(C)CC(=O)*; AEEA = NCCOCCOCC(=O)O

T1: human neuropeptide Y2 receptor (human, UniProt P49146 1-381)
T1 construct: whole, on cells; also called hNPY2 receptor; hNPY2-R
T1 sequence (looked up): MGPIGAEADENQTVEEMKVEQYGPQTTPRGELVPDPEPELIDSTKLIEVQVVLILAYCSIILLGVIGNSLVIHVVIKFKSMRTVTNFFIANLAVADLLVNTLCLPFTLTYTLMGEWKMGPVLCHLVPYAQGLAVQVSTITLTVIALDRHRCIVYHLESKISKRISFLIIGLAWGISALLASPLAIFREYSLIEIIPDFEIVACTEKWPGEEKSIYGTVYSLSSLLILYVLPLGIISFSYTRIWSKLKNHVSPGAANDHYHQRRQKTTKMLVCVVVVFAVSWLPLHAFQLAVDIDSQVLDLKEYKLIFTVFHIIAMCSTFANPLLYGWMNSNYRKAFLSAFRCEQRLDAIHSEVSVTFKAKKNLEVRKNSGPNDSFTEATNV

B1: Compound 183 (peptide)
peptide: Isovaleryl-APEK([AEEA-AEEA-γGlu-C18 diacid])PPEDASPEELQRYYVSLRHYYNWLTRQRY-NH2
SMILES: CC(C)CC(=O)N[C@@H](C)C(=O)N1CCC[C@H]1C(=O)N[C@@H](CCC(=O)O)C(=O)N[C@@H](CCCCNC(=O)COCCOCCNC(=O)COCCOCCNC(=O)CC[C@H](NC(=O)CCCCCCCCCCCCCCCCC(=O)O)C(=O)O)C(=O)N1CCC[C@H]1C(=O)N1CCC[C@H]1C(=O)N[C@@H](CCC(=O)O)C(=O)N[C@@H](CC(=O)O)C(=O)N[C@@H](C)C(=O)N[C@@H](CO)C(=O)N1CCC[C@H]1C(=O)N[C@@H](CCC(=O)O)C(=O)N[C@@H](CCC(=O)O)C(=O)N[C@@H](CC(C)C)C(=O)N[C@@H](CCC(N)=O)C(=O)N[C@@H](CCCNC(=N)N)C(=O)N[C@@H](Cc1ccc(O)cc1)C(=O)N[C@@H](Cc1ccc(O)cc1)C(=O)N[C@H](C(=O)N[C@@H](CO)C(=O)N[C@@H](CC(C)C)C(=O)N[C@@H](CCCNC(=N)N)C(=O)N[C@@H](Cc1c[nH]cn1)C(=O)N[C@@H](Cc1ccc(O)cc1)C(=O)N[C@@H](Cc1ccc(O)cc1)C(=O)N[C@@H](CC(N)=O)C(=O)N[C@@H](Cc1c[nH]c2ccccc12)C(=O)N[C@@H](CC(C)C)C(=O)N[C@H](C(=O)N[C@@H](CCCNC(=N)N)C(=O)N[C@@H](CCC(N)=O)C(=O)N[C@@H](CCCNC(=N)N)C(=O)N[C@@H](Cc1ccc(O)cc1)C(N)=O)[C@@H](C)O)C(C)C
B2: Compound 184 (peptide)
peptide: Isovaleryl-APEK([AEEA-AEEA-γGlu-C18 diacid])PEEAASPEELQRYYVTLRHYYNWLTRQRY-NH2
SMILES: CC(C)CC(=O)N[C@@H](C)C(=O)N1CCC[C@H]1C(=O)N[C@@H](CCC(=O)O)C(=O)N[C@@H](CCCCNC(=O)COCCOCCNC(=O)COCCOCCNC(=O)CC[C@H](NC(=O)CCCCCCCCCCCCCCCCC(=O)O)C(=O)O)C(=O)N1CCC[C@H]1C(=O)N[C@@H](CCC(=O)O)C(=O)N[C@@H](CCC(=O)O)C(=O)N[C@@H](C)C(=O)N[C@@H](C)C(=O)N[C@@H](CO)C(=O)N1CCC[C@H]1C(=O)N[C@@H](CCC(=O)O)C(=O)N[C@@H](CCC(=O)O)C(=O)N[C@@H](CC(C)C)C(=O)N[C@@H](CCC(N)=O)C(=O)N[C@@H](CCCNC(=N)N)C(=O)N[C@@H](Cc1ccc(O)cc1)C(=O)N[C@@H](Cc1ccc(O)cc1)C(=O)N[C@H](C(=O)N[C@H](C(=O)N[C@@H](CC(C)C)C(=O)N[C@@H](CCCNC(=N)N)C(=O)N[C@@H](Cc1c[nH]cn1)C(=O)N[C@@H](Cc1ccc(O)cc1)C(=O)N[C@@H](Cc1ccc(O)cc1)C(=O)N[C@@H](CC(N)=O)C(=O)N[C@@H](Cc1c[nH]c2ccccc12)C(=O)N[C@@H](CC(C)C)C(=O)N[C@H](C(=O)N[C@@H](CCCNC(=N)N)C(=O)N[C@@H](CCC(N)=O)C(=O)N[C@@H](CCCNC(=N)N)C(=O)N[C@@H](Cc1ccc(O)cc1)C(N)=O)[C@@H](C)O)[C@@H](C)O)C(C)C

Molecular target: T1, human neuropeptide Y2 receptor
Assay: radioligand competition (125I-PYY(1-36)), hNPY2R membranes
Method in brief: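 Commercial human Y2 receptor membranes (0.5 μg protein/well) were incubated with peptide for 2 h at room temperature in 50 mM HEPES, 5 mM MgCl₂, 1 mM CaCl₂, pH 7.4, with 0.2% ovalbumin. Bound radioligand was separated on PEI-soaked GF/C filters and counted by scintillation, and IC₅₀ came from nonlinear sigmoidal regression.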

Row | Binder | Ki [nM]
1 | B1 | 0.7
2 | B2 | 2.06
